# Experimental data as given in article PMC11076521.
# B1: C-terminally HA-FLAG-tagged NCOA4, Q13772 1-614 (natural protein)
# chain: MNTFQDQSGSSSNREPLLRCSDARRDLELAIGGVLRAEQQIKDNLREVKAQIHSCISRHLECLRSREVWLYEQVDLIYQLKEETLQQQAQQLYSLLGQFNCLTHQLECTQNKDLANQVSVCLERLGSLTLKPEDSTVLLFEADTITLRQTITTFGSLKTIQIPEHLMAHASSANIGPFLEKRGCISMPEQKSASGIVAVPFSEWLLGSKPASGYQAPYIPSTDPQDWLTQKQTLENSQTSSRACNFFNNVGGNLKGLENWLLKSEKSSYQKCNSHSTTSSFSIEMEKVGDQELPDQDEMDLSDWLVTPQESHKLRKPENGSRETSEKFKLLFQSYNVNDWLVKTDSCTNCQGNQPKGVEIENLGNLKCLNDHLEAKKPLSTPSMVTEDWLVQNHQDPCKVEEVCRANEPCTSFAECVCDENCEKEALYKWLLKKEGKDKNGMPVEPKPEPEKHKDSLNMWLCPRKEVIEQTKAPKAMTPSRIADSFQVIKNSPLSEWLIRPPYKEGSPKEVPGTEDRAGKQKFKSPMNTSWCSFNTADWVLPGKKMGNLSQLSSGEDKWLLRKKAQEVLLNSPLQEEHNFPPDHYGLPAVCDLFACMQLKVDKEKWLYRTPLQM
# Target: MYC-tagged FTL wild type, P02792
# Sequence (P02792 whole entry): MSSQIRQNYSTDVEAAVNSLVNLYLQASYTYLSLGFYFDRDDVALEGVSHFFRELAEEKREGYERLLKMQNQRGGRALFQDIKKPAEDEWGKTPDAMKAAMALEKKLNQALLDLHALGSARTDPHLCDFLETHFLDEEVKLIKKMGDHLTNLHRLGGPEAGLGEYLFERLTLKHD
# Assay: co-IP; HeLa-FTH1 KO cells; anti-MYC IP of MYC-FTH1/FTL, immunoblot; 50 mM Tris-HCl pH 7.5, 150 mM NaCl, 0.5% Nonidet P40, 1 mM DTT; quantified relative to FTH1-WT, normalized to immunoprecipitated FTH1/FTL and NCOA4 input
# Conditions: remark: other sources report otherwise
binder,measurement,value
B1,relative interaction by immunoprecipitation (% of FTH1-WT),14%
